Laboratory results: patent US20040142357A1 (BETH ISRAEL DEACONESS MEDICAL CENTER, published 2004)

Experiments:
[1] = target: T1, GST (glutathione-S-transferase alone, on glutathione beads) (UniProt P08515 1-218 = GST); assay: GST pulldown from HeLa lysates, immunoblot with anti-GFP
T1 construct: Control protein; also called GST tag
Protocol: (§1) GST pulldown, immunoprecipitation and immunoblotting analysis were performed as described (Lu et al., 1999; Shen et al., 1998). Briefly, relevant proteins were expressed in HeLa or HT1080 cells by transient transfection, or translated in vitro using the TNT coupled transcription/translation kit (Promega) in the presence of [³⁵S]-Met, followed by lysis or dilution in a buffer containing 50 mM HEPES, pH 7.5, 150 mM NaCl, 100 mM NaF, 1 mM sodium orthovanadate, 10% glycerol, 1% Triton X100, 10 μg/ml aprotinin, 10 μg/ml leupeptin, 50 μg/ml phenylmethylsulfonyl fluoride and 1 mM DTT. The cellular supernatants were incubated with 1 μM GST or GST fusion proteins for 1 hr at 4° C. and 15 μl of glutathione agarose beads were then added, followed by further incubation for 2 h at 4° C. The precipitated proteins were washed 4 times in the same buffer and subjected to immunoblotting analysis. Other antibodies used for immunoprecipitation and immunoblotting analysis include anti-Pin2/TRF1 (Shen et al., 1997) and anti-hTERT antibodies (Novus). Membranes containing RNAs isolated from different human tissues (Clontech) were hybridized to the C-terminal coding sequence of PinX1 and then stripped, followed by reprobing with the house-keeping gene GAPDH for loading control.
(§2) To map the region in PinX1 that interacts with Pin2, we expressed different PinX1 fragments in HeLa cells as GFP fusion proteins (FIG. 3E), and then subjected them to GST pulldown experiments with GST-Pin2.

[2] = target: telomerase of HT1080 cells (telomerase-containing fraction, or cellular telomerase in stable HT1080 lines) (human, UniProt O14746 1-1132, limits assumed); assay: cell-based or functional assay
telomerase of HT1080 cells (telomerase-containing fraction, or cellular telomerase in stable HT1080 lines), sequence (O14746 whole entry): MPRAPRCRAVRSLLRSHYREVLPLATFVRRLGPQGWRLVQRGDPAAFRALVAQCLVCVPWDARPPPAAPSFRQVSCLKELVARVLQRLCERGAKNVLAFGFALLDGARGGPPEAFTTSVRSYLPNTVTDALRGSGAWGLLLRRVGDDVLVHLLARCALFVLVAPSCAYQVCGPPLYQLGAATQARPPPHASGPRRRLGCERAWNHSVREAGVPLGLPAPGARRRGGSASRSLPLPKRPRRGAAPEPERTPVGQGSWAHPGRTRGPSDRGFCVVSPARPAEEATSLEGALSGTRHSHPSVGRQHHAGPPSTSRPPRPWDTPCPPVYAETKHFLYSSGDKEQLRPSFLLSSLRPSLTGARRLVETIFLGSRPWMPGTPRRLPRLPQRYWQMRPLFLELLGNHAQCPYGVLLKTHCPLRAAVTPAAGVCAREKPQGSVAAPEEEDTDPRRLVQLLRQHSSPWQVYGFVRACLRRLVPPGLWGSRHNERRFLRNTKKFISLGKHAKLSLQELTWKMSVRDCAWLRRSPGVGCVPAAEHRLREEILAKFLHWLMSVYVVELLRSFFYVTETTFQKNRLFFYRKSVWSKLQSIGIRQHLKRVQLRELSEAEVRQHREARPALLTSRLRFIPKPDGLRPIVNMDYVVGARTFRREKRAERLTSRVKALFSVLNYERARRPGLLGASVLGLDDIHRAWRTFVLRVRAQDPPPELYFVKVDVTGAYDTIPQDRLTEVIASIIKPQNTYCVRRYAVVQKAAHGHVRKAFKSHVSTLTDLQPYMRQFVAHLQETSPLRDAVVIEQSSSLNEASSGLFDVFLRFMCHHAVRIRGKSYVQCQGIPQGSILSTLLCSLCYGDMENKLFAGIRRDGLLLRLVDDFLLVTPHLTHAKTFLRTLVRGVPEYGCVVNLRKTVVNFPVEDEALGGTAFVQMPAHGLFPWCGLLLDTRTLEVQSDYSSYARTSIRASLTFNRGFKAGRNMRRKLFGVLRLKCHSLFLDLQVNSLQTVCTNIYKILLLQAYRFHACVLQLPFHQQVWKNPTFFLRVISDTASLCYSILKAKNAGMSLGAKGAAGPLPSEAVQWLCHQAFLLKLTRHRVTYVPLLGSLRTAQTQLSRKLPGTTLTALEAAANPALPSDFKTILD

[3] = target: T1, GST (glutathione-S-transferase alone, …); assay: GST pulldown from HeLa lysates, immunoblot with anti-HA
Protocol: as §1, with “control. […]” for “control.”

GST-Pin2 = target: T2, GST-Pin2 (human, UniProt P54274 2-439); assay: GST pulldown from HeLa lysates, immunoblot with anti-GFP
T2 construct: Produced as described in Shen et al., 1997; also called GST-Pin2 beads (Pin2); not shown: glutathione-S-transferase (GST) tag
T2 sequence: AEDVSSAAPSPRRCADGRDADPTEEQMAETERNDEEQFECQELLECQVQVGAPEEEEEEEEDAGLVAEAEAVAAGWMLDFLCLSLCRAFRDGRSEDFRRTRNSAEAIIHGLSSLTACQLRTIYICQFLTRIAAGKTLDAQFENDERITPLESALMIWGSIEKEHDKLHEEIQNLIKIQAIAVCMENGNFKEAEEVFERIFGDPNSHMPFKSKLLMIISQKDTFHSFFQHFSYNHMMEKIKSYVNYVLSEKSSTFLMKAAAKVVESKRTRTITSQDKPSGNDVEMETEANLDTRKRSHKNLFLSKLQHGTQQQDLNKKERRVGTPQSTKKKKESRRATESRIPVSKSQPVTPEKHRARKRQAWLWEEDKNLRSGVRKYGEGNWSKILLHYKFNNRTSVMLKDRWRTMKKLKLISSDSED
Protocol: as §1, §2

T1 sequence (P08515 whole entry): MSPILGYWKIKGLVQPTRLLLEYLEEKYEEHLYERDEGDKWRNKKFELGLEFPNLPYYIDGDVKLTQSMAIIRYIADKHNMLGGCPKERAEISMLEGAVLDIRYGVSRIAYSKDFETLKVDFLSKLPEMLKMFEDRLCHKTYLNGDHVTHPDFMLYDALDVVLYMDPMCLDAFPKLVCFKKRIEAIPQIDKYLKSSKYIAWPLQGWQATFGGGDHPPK

B1: GFP fusion of the PinX1 C-terminal 142-328 amino acid fragment (other)
chain: DLDCIFGKRQSKKTPEGDASPSTPEENETTTTSAFTIQEYFAKPVAALKNKPQVPVPGSDISETQVERKRGKKRNKEATGKDVESYLQPKAKRHTEGKPERAEAQERVAKKKCAPAEKQLRGPCWDQSSKASAQDAGDHVQPPEGRDFTLKPKKRRGKKKLQKPVEIAEDATLEETLVKKKKKKDSK
notes: Expressed in HeLa cells; not shown: GFP fusion partner
B1: no binding (tested: 1 µM) [1].

B2: GST-PinX1-C (GST fusion of the C-terminal 74 amino acid fragment of PinX1, the telomerase inhibitory domain TID) (other, not shown: a dimerising Fc or GST)
chain: CAPAEKQLRGPCWDQSSKASAQDAGDHVQPPEGRDFTLKPKKRRGKKKLQKPVEIAEDATLEETLVKKKKKKDSK
In the case of B2, the “IC50 of inhibition of telomerase activity in vitro (TRAP assay)” value [2] is reported as roughly 50 nM.

B3: GFP fusion of the PinX1 254-328 amino acid fragment (other)
chain: CAPAEKQLRGPCWDQSSKASAQDAGDHVQPPEGRDFTLKPKKRRGKKKLQKPVEIAEDATLEETLVKKKKKKDSK
notes: Expressed in HeLa cells; also called GFP-PinX1-C; C-terminal 74 amino acid fragment; not shown: GFP fusion partner
B3: no binding (tested: 1 µM) [1].

B4: GST-PinX1 (N-terminal GST fusion of full length PinX1) (other, not shown: a dimerising Fc or GST)
chain: MSMLAERRRKQKWAVDPQNTAWSNDDSKFGQRMLEKMGWSKGKGLGAQEQGATDHIKVQVKNNHLGLGATINNEDNWIAHQDDFNQLLAELNTCHGQETTDSSDKKEKKSFSLEEKSKISKNRVHYMKFTKGKDLSSRSKTDLDCIFGKRQSKKTPEGDASPSTPEENETTTTSAFTIQEYFAKPVAALKNKPQVPVPGSDISETQVERKRGKKRNKEATGKDVESYLQPKAKRHTEGKPERAEAQERVAKKKCAPAEKQLRGPCWDQSSKASAQDAGDHVQPPEGRDFTLKPKKRRGKKKLQKPVEIAEDATLEETLVKKKKKKDSK
In the case of B4, the “IC50 of inhibition of telomerase activity in vitro (TRAP assay)” value [2] is reported as roughly 50 nM.

B5: GFP-PinX1 (full length PinX1 as a GFP fusion protein) (other)
chain: MSMLAERRRKQKWAVDPQNTAWSNDDSKFGQRMLEKMGWSKGKGLGAQEQGATDHIKVQVKNNHLGLGATINNEDNWIAHQDDFNQLLAELNTCHGQETTDSSDKKEKKSFSLEEKSKISKNRVHYMKFTKGKDLSSRSKTDLDCIFGKRQSKKTPEGDASPSTPEENETTTTSAFTIQEYFAKPVAALKNKPQVPVPGSDISETQVERKRGKKRNKEATGKDVESYLQPKAKRHTEGKPERAEAQERVAKKKCAPAEKQLRGPCWDQSSKASAQDAGDHVQPPEGRDFTLKPKKRRGKKKLQKPVEIAEDATLEETLVKKKKKKDSK
notes: as for B1
B5: no binding (tested: 1 µM) [1].

B6: HA-PinX1 (PinX1 with an N-terminal HA epitope tag) (other, not shown: small tags and cut ends)
chain: MSMLAERRRKQKWAVDPQNTAWSNDDSKFGQRMLEKMGWSKGKGLGAQEQGATDHIKVQVKNNHLGLGATINNEDNWIAHQDDFNQLLAELNTCHGQETTDSSDKKEKKSFSLEEKSKISKNRVHYMKFTKGKDLSSRSKTDLDCIFGKRQSKKTPEGDASPSTPEENETTTTSAFTIQEYFAKPVAALKNKPQVPVPGSDISETQVERKRGKKRNKEATGKDVESYLQPKAKRHTEGKPERAEAQERVAKKKCAPAEKQLRGPCWDQSSKASAQDAGDHVQPPEGRDFTLKPKKRRGKKKLQKPVEIAEDATLEETLVKKKKKKDSK
notes: Expressed in HeLa or HT1080 cells; also called transfected PinX1 protein; 50 kDa HA-PinX1 protein
With B6 the “fold decrease in telomerase activity in stable HT1080 cells (TRAP assay)” value [2] was roughly 5 fold and the binding result [3] was “no binding (tested: 1 µM)”.

B7: GFP fusion of the N-terminal 142 amino acid fragment of PinX1 (other)
chain: MSMLAERRRKQKWAVDPQNTAWSNDDSKFGQRMLEKMGWSKGKGLGAQEQGATDHIKVQVKNNHLGLGATINNEDNWIAHQDDFNQLLAELNTCHGQETTDSSDKKEKKSFSLEEKSKISKNRVHYMKFTKGKDLSSRSKTD
notes: Expressed in HeLa cells; also called GFP-PinX1-N; PinX1-N; not shown: GFP fusion partner
B7: no binding (tested: 1 µM) (GST-Pin2); no binding (tested: 1 µM) [1].
